The source of these data is article PMC4422123, “The peroxisomal protein import machinery displays a preference for monomeric substrates” (Open Biology, 2015).

For data set [1], the target named is acyl-CoA oxidase 1 (ACOX1), untagged, in vitro synthesized (mouse) (UniProt Q9R0H0). Description: sucrose gradient centrifugation; 35S-labelled protein synthesized (30 min ACOX1, 45 min UOX) and chased for 4 h with cycloheximide without PEX5; 5-30% sucrose in buffer B, 39 000 r.p.m., 29 h, 4°C.
Data set [2] deals with the molecule itself. The data set is described as above.

A word on the stoichiometry N: it is the number of molecules, sites or subunits per partner or assembly. “acyl-CoA oxidase 1 (ACOX1), untagged, in vitro synthesized (from UniProt Q9R0H0 1-661) (natural protein)” came in with a stoichiometry N in data set [1] of 2.

B1: urate oxidase (UOX), untagged, in vitro synthesized (natural protein, mouse, UniProt P25688 1-303, looked up)
chain: MAHYHDNYGKNDEVEFVRTGYGKDMVKVLHIQRDGKYHSIKEVATSVQLTLRSKKDYLHGDNSDIIPTDTIKNTVHVLAKLRGIRNIETFAMNICEHFLSSFNHVTRAHVYVEEVPWKRFEKNGIKHVHAFIHTPTGTHFCEVEQMRNGPPVIHSGIKDLKVLKTTQSGFEGFLKDQFTTLPEVKDRCFATQVYCKWRYQRRDVDFEAIWGAVRDIVLQKFAGPYDKGEYSPSVQKTLYDIQVLSLSQLPEIEDMEISLPNIHYFNIDMSKMGLINKEEVLLPLDNPYGKITGTVKRKLPSRL
modifications: 35S-methionine labelled
notes: mouse urate oxidase, cDNA amplified with primers from the start codon to the stop codon, in pGEM4; also called mUOX; monomeric UOX; source: in vitro translated (rabbit reticulocyte lysate, TnT T7 QuickCoupled kit), not purified
With B1, the “stoichiometry N” value in data set [2] was determined as 4.
